By Kd is commonly meant the constant that tells how readily two partners part at equilibrium. High values mean weaker binding, low ones tighter binding.

Experiment [1] addresses T1, human FGFR3b-ecto.mmH (human, UniProt P22607 23-806).
T1 construct: also called hFGFR3b (mmh); hFGFR3b-mmh; not shown: mmh tag
In words: Biacore SPR, 25 C, mmh-tagged FGFR3. A general note: SPR reads the build-up and loss of mass on a sensor chip optically.

Experiment [2] addresses T2, mouse FGFR3b-ecto.mmH (mouse, UniProt Q61851 21-801).
T2 construct: also called moFGFR3b (mmh); monomeric mouse FGFR3b; not shown: mmh tag
In words: Biacore SPR, 25 C, mmh-tagged FGFR3.

T1 sequence (P22607 other isoform, or with tags, fused parts or gaps): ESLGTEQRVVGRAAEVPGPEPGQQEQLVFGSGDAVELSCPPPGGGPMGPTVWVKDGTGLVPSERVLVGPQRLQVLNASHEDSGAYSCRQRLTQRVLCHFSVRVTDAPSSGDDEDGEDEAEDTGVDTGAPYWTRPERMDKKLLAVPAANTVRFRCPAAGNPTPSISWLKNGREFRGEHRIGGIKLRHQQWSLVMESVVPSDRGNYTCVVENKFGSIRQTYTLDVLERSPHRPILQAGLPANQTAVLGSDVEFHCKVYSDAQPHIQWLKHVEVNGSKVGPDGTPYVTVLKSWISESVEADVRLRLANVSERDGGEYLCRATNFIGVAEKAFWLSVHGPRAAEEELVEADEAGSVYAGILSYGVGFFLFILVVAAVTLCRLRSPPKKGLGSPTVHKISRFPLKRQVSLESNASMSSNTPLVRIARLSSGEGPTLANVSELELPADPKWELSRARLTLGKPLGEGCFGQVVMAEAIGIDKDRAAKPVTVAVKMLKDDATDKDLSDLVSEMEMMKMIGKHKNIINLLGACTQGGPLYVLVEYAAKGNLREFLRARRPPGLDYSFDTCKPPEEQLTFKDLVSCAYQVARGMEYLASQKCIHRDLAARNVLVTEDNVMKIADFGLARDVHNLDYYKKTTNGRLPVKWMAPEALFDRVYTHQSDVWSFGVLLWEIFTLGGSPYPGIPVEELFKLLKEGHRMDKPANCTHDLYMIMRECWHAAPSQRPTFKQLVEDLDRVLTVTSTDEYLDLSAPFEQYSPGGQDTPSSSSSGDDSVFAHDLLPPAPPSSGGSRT
T2 sequence (Q61851 other isoform, or with tags, fused parts or gaps): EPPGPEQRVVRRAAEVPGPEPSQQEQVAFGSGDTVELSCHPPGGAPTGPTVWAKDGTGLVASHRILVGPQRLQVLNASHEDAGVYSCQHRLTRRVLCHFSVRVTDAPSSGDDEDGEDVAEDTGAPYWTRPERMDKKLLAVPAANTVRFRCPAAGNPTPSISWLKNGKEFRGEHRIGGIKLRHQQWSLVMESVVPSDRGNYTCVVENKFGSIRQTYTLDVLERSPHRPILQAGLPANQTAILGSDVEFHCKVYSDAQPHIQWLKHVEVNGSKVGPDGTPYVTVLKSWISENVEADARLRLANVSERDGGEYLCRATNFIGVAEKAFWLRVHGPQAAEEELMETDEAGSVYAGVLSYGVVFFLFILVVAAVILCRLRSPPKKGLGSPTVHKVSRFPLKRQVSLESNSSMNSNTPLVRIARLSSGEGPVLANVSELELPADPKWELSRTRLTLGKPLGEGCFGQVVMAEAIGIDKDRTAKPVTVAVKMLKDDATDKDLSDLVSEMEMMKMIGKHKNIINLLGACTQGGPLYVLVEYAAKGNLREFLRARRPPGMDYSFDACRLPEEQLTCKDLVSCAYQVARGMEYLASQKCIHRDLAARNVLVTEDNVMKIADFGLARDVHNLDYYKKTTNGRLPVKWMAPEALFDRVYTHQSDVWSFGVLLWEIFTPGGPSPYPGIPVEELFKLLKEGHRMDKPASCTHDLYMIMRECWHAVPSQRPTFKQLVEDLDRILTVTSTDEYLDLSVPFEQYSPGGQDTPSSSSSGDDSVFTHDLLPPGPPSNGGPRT

B1: H4H30063P (antibody, V domains shown)
VH: QVQLQESGPGLVKPSETLSLTCTVSGDSINSYFWSWIRQLPGKELEWIGHIYSSGSTRYNPSLQSRVTISIDTSKNQFSLKLSSVTAADTAVYYCARGASAVDYWGQGTLVTVSS
VL: EIVLTQSPGTLSLSPGERATLSCRTSQSISSGYLAWYQQKPGQAPRLLIYGASRRATGIPDRFSGSGSGTDFTLTISRLEPEDFVVYYCQQYGSSPYTFGQGTKLEIKR
As to B1, the Kd in experiment [1] turned out to be 1.8 nM; in experiment [2], 1.27 nM.
